From publication PMC7111943 come the findings set out here.

The data set addresses T1, GST-N (TGEV nucleocapsid protein) (Transmissible gastroenteritis …, UniProt P04134 1-382).
T1 sequence: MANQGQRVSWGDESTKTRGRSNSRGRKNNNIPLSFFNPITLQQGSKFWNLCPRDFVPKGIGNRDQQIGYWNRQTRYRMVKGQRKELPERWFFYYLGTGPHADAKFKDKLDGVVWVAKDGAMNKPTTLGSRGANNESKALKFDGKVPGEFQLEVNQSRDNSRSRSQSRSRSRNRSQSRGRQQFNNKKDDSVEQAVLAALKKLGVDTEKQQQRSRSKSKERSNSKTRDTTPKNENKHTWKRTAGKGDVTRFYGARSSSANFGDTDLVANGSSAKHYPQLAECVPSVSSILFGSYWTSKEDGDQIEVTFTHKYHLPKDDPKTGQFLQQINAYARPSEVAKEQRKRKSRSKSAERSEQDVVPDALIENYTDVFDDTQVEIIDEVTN
The data set can be described thus: EMSA.

As for UCGAACUAAACGAAAU (ssRNA) [TRS-L], the binding result is on record as “binds”.
